Biological target: HLA-DR molecules of the human B-lymphoblastoid cell line Awells (HLA-DRB1*0401, HLA-DRB4*0101) (human)
Assay: cell-based or functional assay

inhibition of T-helper cell line activation by Awells-Ii-cyclin D1 transfectants: 71.2%
B1: L243 (anti-HLA-DR) (antibody, from another filing, V domains shown)
VH: QIQLVQSGPELKKPGETVKISCKASGFTFTNYGMNWVKQAPGKGLKWMGWINTYTREPTYADDFKGRFAFSLETSASTAYLQINNLKNEDTAKYFCARDITAVVPTGFDYWGQGTTLTVSS
VL: DIQMTQSPASLSVSVGETVTITCRASENIYSNLAWYRQKQGKSPQLLVFAASNLADGVPSRFSGSGSGTQYSLKINSLQSEDFGDYYCQHFWTTPWAFGGGTNLEIKR

From US20090317428A1
